{"source": "the supplement of paper PMC10065799", "about": "“High-throughput profiling of sequence recognition by tyrosine kinases and SH2 domains using bacterial peptide display” (eLife, 2023);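 on SH2 binding enrichment of the phosphorylated peptide, bacterial display: peptide library displayed on the E. coli surface as eCPX fusions, selected cells deep-sequenced, score is each peptide's frequency after selection divided by its frequency in the input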;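 on phosphorylation enrichment, bacterial display: 11-residue human phosphosite peptides and single-mutation variants displayed on the E. coli surface, counted by deep sequencing, each peptide's frequency after selection divided by its frequency in the unselected input library; frequency after pTyr selection over input frequency; kinase dosed for 20-30% of maximal phosphorylation in three min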"}
{"system": "c-Src", "experiment": "phosphorylation enrichment, bacterial display (enrichment ratio); higher = better substrate or ligand; peptides without Tyr show the background"}
{"sequence": "EPVSDYINADI [PTPN11_Y304_N308D]", "phosphorylation enrichment": 0.514}
{"sequence": "LLQEWYMIISR [HUWE1_Y4066_R4063Q]", "phosphorylation enrichment": 1.25}
{"sequence": "VPLLEYFWDIF [CDAN1_Y712_R714W_YF]", "phosphorylation enrichment": 0.411}
{"sequence": "TQFWLYFAGNL [SLC25A5_Y112]", "phosphorylation enrichment": 0.652}
{"sequence": "RKGGSYTQAAS [HLA-A_Y344]", "phosphorylation enrichment": 0.384}
{"sequence": "VTRDEYPSNPM [CEMIP2_Y1015_I1010V]", "phosphorylation enrichment": 0.394}
{"sequence": "TVLWLYTGTRP [UGT1A1_Y337_R336L]", "phosphorylation enrichment": 0.255}
{"sequence": "HKANEYFPVVI [ADAMTS18_Y764_L769I_YF]", "phosphorylation enrichment": 0.625}
{"sequence": "AHADEYGAEAL [HBA1_Y25_G23D]", "phosphorylation enrichment": 0.46}
{"sequence": "YRQLQYCPSVE [CTNND2_Y508]", "phosphorylation enrichment": 0.476}
{"sequence": "REGAKYVSHDA [ASS1_Y113_G117D]", "phosphorylation enrichment": 0.565}
{"sequence": "CPYNLYAEQFS [HGD_Y40_L44F]", "phosphorylation enrichment": 6.06}
{"sequence": "FRPPFYHRNCM [HGD_Y334_YF]", "phosphorylation enrichment": 0.402}
{"sequence": "IMWDSYTTNKV [GNB3_Y85_V81M]", "phosphorylation enrichment": 0.369}
{"sequence": "CGQDPYIRELG [UROS_Y19]", "phosphorylation enrichment": 0.433}
{"sequence": "LAGRYYALRSM [CKB_Y174_K177R]", "phosphorylation enrichment": 0.581}
{"sequence": "EQKKFYNAVKK [SCN5A_Y1495_M1498V_YF]", "phosphorylation enrichment": 0.461}
{"sequence": "MGSFNYLGFAW [SPTLC2_Y178_R183W_YF]", "phosphorylation enrichment": 0.72}
{"sequence": "QDLTDYLMKIL [ACTA2_Y190_R185Q]", "phosphorylation enrichment": 0.546}
{"sequence": "CTTIHYNFLCN [TP53_Y234_M237L_YF]", "phosphorylation enrichment": 0.499}
{"sequence": "IGRHAYGDQFR [IDH1_Y135_YF]", "phosphorylation enrichment": 0.407}
{"sequence": "PLYSKYWPNHI [GREB1L_Y1560_R1558S]", "phosphorylation enrichment": 11.8}
{"sequence": "RAEAQYLLVSN [LRIG1_Y1054]", "phosphorylation enrichment": 0.648}
{"sequence": "DKEKWYPLGTS [PIK3C2G_Y1438_N1442T]", "phosphorylation enrichment": 0.486}
{"sequence": "VKGGAYNPVTV [MCCC2_Y145_Y146N]", "phosphorylation enrichment": 0.511}
{"sequence": "PADQAYSWYQH [NDST1_Y711_R709Q]", "phosphorylation enrichment": 1.58}
{"sequence": "NFRTIYVNANE [KCNH2_Y475_T474I]", "phosphorylation enrichment": 0.44}
{"sequence": "ANSSFHSTRSA [NUMA1_Y1836_Y1836H]", "phosphorylation enrichment": 0.602}
{"sequence": "RRVEPYGENFN [APOA4_Y310]", "phosphorylation enrichment": 0.643}
{"target": "Grb2 SH2 (UniProt P62993)", "sequence (P62993 whole entry, looked up)": "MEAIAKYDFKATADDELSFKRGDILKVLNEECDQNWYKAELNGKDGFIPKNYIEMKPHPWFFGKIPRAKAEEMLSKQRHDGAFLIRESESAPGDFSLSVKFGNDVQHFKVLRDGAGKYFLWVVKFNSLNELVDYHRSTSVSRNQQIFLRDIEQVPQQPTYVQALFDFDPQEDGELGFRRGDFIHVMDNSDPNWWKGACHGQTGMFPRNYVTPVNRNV", "experiment": "SH2 binding enrichment of the phosphorylated peptide, bacterial display (enrichment ratio); higher = better substrate or ligand; peptides without Tyr show the background"}
{"sequence": "EPVSDYINADI [PTPN11_Y304_N308D]", "SH2 binding enrichment": 0.761}
{"sequence": "LLQEWYMIISR [HUWE1_Y4066_R4063Q]", "SH2 binding enrichment": 1.08}
{"sequence": "VPLLEYFWDIF [CDAN1_Y712_R714W_YF]", "SH2 binding enrichment": 1.8}
{"sequence": "TQFWLYFAGNL [SLC25A5_Y112]", "SH2 binding enrichment": 0.742}
{"sequence": "RKGGSYTQAAS [HLA-A_Y344]", "SH2 binding enrichment": 1.07}
{"sequence": "VTRDEYPSNPM [CEMIP2_Y1015_I1010V]", "SH2 binding enrichment": 0.67}
{"sequence": "TVLWLYTGTRP [UGT1A1_Y337_R336L]", "SH2 binding enrichment": 1.28}
{"sequence": "HKANEYFPVVI [ADAMTS18_Y764_L769I_YF]", "SH2 binding enrichment": 0.767}
{"sequence": "AHADEYGAEAL [HBA1_Y25_G23D]", "SH2 binding enrichment": 0.781}
{"sequence": "YRQLQYCPSVE [CTNND2_Y508]", "SH2 binding enrichment": 0.678}
{"sequence": "REGAKYVSHDA [ASS1_Y113_G117D]", "SH2 binding enrichment": 0.678}
{"sequence": "CPYNLYAEQFS [HGD_Y40_L44F]", "SH2 binding enrichment": 0.855}
{"sequence": "FRPPFYHRNCM [HGD_Y334_YF]", "SH2 binding enrichment": 0.935}
{"sequence": "IMWDSYTTNKV [GNB3_Y85_V81M]", "SH2 binding enrichment": 0.749}
{"sequence": "CGQDPYIRELG [UROS_Y19]", "SH2 binding enrichment": 0.731}
{"sequence": "LAGRYYALRSM [CKB_Y174_K177R]", "SH2 binding enrichment": 1.38}
{"sequence": "EQKKFYNAVKK [SCN5A_Y1495_M1498V_YF]", "SH2 binding enrichment": 0.966}
{"sequence": "MGSFNYLGFAW [SPTLC2_Y178_R183W_YF]", "SH2 binding enrichment": 0.676}
{"sequence": "QDLTDYLMKIL [ACTA2_Y190_R185Q]", "SH2 binding enrichment": 1.33}
{"sequence": "CTTIHYNFLCN [TP53_Y234_M237L_YF]", "SH2 binding enrichment": 1.93}
{"sequence": "IGRHAYGDQFR [IDH1_Y135_YF]", "SH2 binding enrichment": 0.996}
{"sequence": "PLYSKYWPNHI [GREB1L_Y1560_R1558S]", "SH2 binding enrichment": 1.2}
{"sequence": "RAEAQYLLVSN [LRIG1_Y1054]", "SH2 binding enrichment": 0.884}
{"sequence": "DKEKWYPLGTS [PIK3C2G_Y1438_N1442T]", "SH2 binding enrichment": 0.852}
{"sequence": "VKGGAYNPVTV [MCCC2_Y145_Y146N]", "SH2 binding enrichment": 0.814}
{"sequence": "PADQAYSWYQH [NDST1_Y711_R709Q]", "SH2 binding enrichment": 0.802}
{"sequence": "NFRTIYVNANE [KCNH2_Y475_T474I]", "SH2 binding enrichment": 19}
{"sequence": "ANSSFHSTRSA [NUMA1_Y1836_Y1836H]", "SH2 binding enrichment": 0.749}
{"sequence": "RRVEPYGENFN [APOA4_Y310]", "SH2 binding enrichment": 0.687}
{"target": "SHP2-C SH2", "experiment": "SH2 binding enrichment of the phosphorylated peptide, bacterial display (enrichment ratio); higher = better substrate or ligand; peptides without Tyr show the background"}
{"sequence": "EPVSDYINADI [PTPN11_Y304_N308D]", "SH2 binding enrichment": 0.437}
{"sequence": "LLQEWYMIISR [HUWE1_Y4066_R4063Q]", "SH2 binding enrichment": 1.09}
{"sequence": "VPLLEYFWDIF [CDAN1_Y712_R714W_YF]", "SH2 binding enrichment": 2.12}
{"sequence": "TQFWLYFAGNL [SLC25A5_Y112]", "SH2 binding enrichment": 0.557}
{"sequence": "RKGGSYTQAAS [HLA-A_Y344]", "SH2 binding enrichment": 0.584}
{"sequence": "VTRDEYPSNPM [CEMIP2_Y1015_I1010V]", "SH2 binding enrichment": 0.783}
{"sequence": "TVLWLYTGTRP [UGT1A1_Y337_R336L]", "SH2 binding enrichment": 1.3}
{"sequence": "HKANEYFPVVI [ADAMTS18_Y764_L769I_YF]", "SH2 binding enrichment": 0.86}
{"sequence": "AHADEYGAEAL [HBA1_Y25_G23D]", "SH2 binding enrichment": 0.66}
{"sequence": "YRQLQYCPSVE [CTNND2_Y508]", "SH2 binding enrichment": 0.488}
{"sequence": "REGAKYVSHDA [ASS1_Y113_G117D]", "SH2 binding enrichment": 0.452}
{"sequence": "CPYNLYAEQFS [HGD_Y40_L44F]", "SH2 binding enrichment": 0.645}
{"sequence": "FRPPFYHRNCM [HGD_Y334_YF]", "SH2 binding enrichment": 0.913}
{"sequence": "IMWDSYTTNKV [GNB3_Y85_V81M]", "SH2 binding enrichment": 0.675}
{"sequence": "CGQDPYIRELG [UROS_Y19]", "SH2 binding enrichment": 0.492}
{"sequence": "LAGRYYALRSM [CKB_Y174_K177R]", "SH2 binding enrichment": 2.86}
{"sequence": "EQKKFYNAVKK [SCN5A_Y1495_M1498V_YF]", "SH2 binding enrichment": 0.646}
{"sequence": "MGSFNYLGFAW [SPTLC2_Y178_R183W_YF]", "SH2 binding enrichment": 0.601}
{"sequence": "QDLTDYLMKIL [ACTA2_Y190_R185Q]", "SH2 binding enrichment": 1.23}
{"sequence": "CTTIHYNFLCN [TP53_Y234_M237L_YF]", "SH2 binding enrichment": 2.12}
{"sequence": "IGRHAYGDQFR [IDH1_Y135_YF]", "SH2 binding enrichment": 0.633}
{"sequence": "PLYSKYWPNHI [GREB1L_Y1560_R1558S]", "SH2 binding enrichment": 0.732}
{"sequence": "RAEAQYLLVSN [LRIG1_Y1054]", "SH2 binding enrichment": 0.62}
{"sequence": "DKEKWYPLGTS [PIK3C2G_Y1438_N1442T]", "SH2 binding enrichment": 0.513}
{"sequence": "VKGGAYNPVTV [MCCC2_Y145_Y146N]", "SH2 binding enrichment": 0.558}
{"sequence": "PADQAYSWYQH [NDST1_Y711_R709Q]", "SH2 binding enrichment": 0.488}
{"sequence": "NFRTIYVNANE [KCNH2_Y475_T474I]", "SH2 binding enrichment": 8.36}
{"sequence": "ANSSFHSTRSA [NUMA1_Y1836_Y1836H]", "SH2 binding enrichment": 0.514}
{"sequence": "RRVEPYGENFN [APOA4_Y310]", "SH2 binding enrichment": 0.588}
{"target": "c-Src SH2", "experiment": "SH2 binding enrichment of the phosphorylated peptide, bacterial display (enrichment ratio); higher = better substrate or ligand; peptides without Tyr show the background"}
{"sequence": "EPVSDYINADI [PTPN11_Y304_N308D]", "SH2 binding enrichment": 0.464}
{"sequence": "LLQEWYMIISR [HUWE1_Y4066_R4063Q]", "SH2 binding enrichment": 0.623}
{"sequence": "VPLLEYFWDIF [CDAN1_Y712_R714W_YF]", "SH2 binding enrichment": 1.68}
{"sequence": "TQFWLYFAGNL [SLC25A5_Y112]", "SH2 binding enrichment": 0.509}
{"sequence": "RKGGSYTQAAS [HLA-A_Y344]", "SH2 binding enrichment": 1.06}
{"sequence": "VTRDEYPSNPM [CEMIP2_Y1015_I1010V]", "SH2 binding enrichment": 0.564}
{"sequence": "TVLWLYTGTRP [UGT1A1_Y337_R336L]", "SH2 binding enrichment": 1.06}
{"sequence": "HKANEYFPVVI [ADAMTS18_Y764_L769I_YF]", "SH2 binding enrichment": 0.485}
{"sequence": "AHADEYGAEAL [HBA1_Y25_G23D]", "SH2 binding enrichment": 0.393}
{"sequence": "YRQLQYCPSVE [CTNND2_Y508]", "SH2 binding enrichment": 0.472}
{"sequence": "REGAKYVSHDA [ASS1_Y113_G117D]", "SH2 binding enrichment": 0.389}
{"sequence": "CPYNLYAEQFS [HGD_Y40_L44F]", "SH2 binding enrichment": 0.706}
{"sequence": "FRPPFYHRNCM [HGD_Y334_YF]", "SH2 binding enrichment": 1}
{"sequence": "IMWDSYTTNKV [GNB3_Y85_V81M]", "SH2 binding enrichment": 0.66}
{"sequence": "CGQDPYIRELG [UROS_Y19]", "SH2 binding enrichment": 0.563}
{"sequence": "LAGRYYALRSM [CKB_Y174_K177R]", "SH2 binding enrichment": 1.73}
{"sequence": "EQKKFYNAVKK [SCN5A_Y1495_M1498V_YF]", "SH2 binding enrichment": 0.648}
{"sequence": "MGSFNYLGFAW [SPTLC2_Y178_R183W_YF]", "SH2 binding enrichment": 0.385}
{"sequence": "QDLTDYLMKIL [ACTA2_Y190_R185Q]", "SH2 binding enrichment": 0.861}
{"sequence": "CTTIHYNFLCN [TP53_Y234_M237L_YF]", "SH2 binding enrichment": 2.28}
{"sequence": "IGRHAYGDQFR [IDH1_Y135_YF]", "SH2 binding enrichment": 0.817}
{"sequence": "PLYSKYWPNHI [GREB1L_Y1560_R1558S]", "SH2 binding enrichment": 0.608}
{"sequence": "RAEAQYLLVSN [LRIG1_Y1054]", "SH2 binding enrichment": 0.431}
{"sequence": "DKEKWYPLGTS [PIK3C2G_Y1438_N1442T]", "SH2 binding enrichment": 0.403}
{"sequence": "VKGGAYNPVTV [MCCC2_Y145_Y146N]", "SH2 binding enrichment": 0.466}
{"sequence": "PADQAYSWYQH [NDST1_Y711_R709Q]", "SH2 binding enrichment": 0.63}
{"sequence": "NFRTIYVNANE [KCNH2_Y475_T474I]", "SH2 binding enrichment": 3.07}
{"sequence": "ANSSFHSTRSA [NUMA1_Y1836_Y1836H]", "SH2 binding enrichment": 0.528}
{"sequence": "RRVEPYGENFN [APOA4_Y310]", "SH2 binding enrichment": 0.513}
